Data as given in the supplement of paper PMC10724198.
± gives the standard deviation of the averaged measurements.

Test system: Saccharomyces cerevisiae
Test: protein stability index of tFT-peptide fusion (C-terminal peptide) (PSI (0-1 scale)); higher = more stable (slower turnover)
Conditions: genetic background: wild type; temperature: 30 C
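Also: PSI is a weighted mean of sequencing reads over stability bins, variants kept only with over 10 reads, mCherry proximal and sfGFP distal, peptide attached via GGGS linker.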

Sequence GCGREGGGLDKD has a protein stability index of 0.781 ± 0.094.
Sequence KELIGITYKNSS has a protein stability index of 0.6766 ± 0.0058.
For SFPGVRHSTSDS, the protein stability index was 0.676 ± 0.017.
Work on TRYKSMRAGVAG yielded a protein stability index of 0.674 ± 0.067.
GAGLSLALSGPL was tested, and the protein stability index was 0.607 ± 0.0094.
In the case of PSLPPPSPSPPP, the protein stability index is reported as 0.666 ± 0.05.
PPLLPPPPQLLL was tested, and the protein stability index was 0.679 ± 0.028.
RNGALSVVCDYV showed a protein stability index of 0.698 ± 0.15.
Work on RIVASTLKSYLT yielded a protein stability index of 0.68835 ± 0.00068.
LLSCFGFLRVGA was tested, and the protein stability index was 0.6076 ± 0.0049.
FLPPPPTPSPPY showed a protein stability index of 0.723 ± 0.043.
In the case of EKGSKTGNKPQT, the protein stability index is reported as 0.688 ± 0.048.
Sequence RHILFLLLTPHS has a protein stability index of 0.5774 ± 0.0026.
Work on TKEEDKNEGRRR yielded a protein stability index of 0.662 ± 0.055.
APPVILPPSGPP gave a protein stability index of 0.654 ± 0.028.
ASGGGPLGNSSR gave a protein stability index of 0.684 ± 0.043.
For FKVVLGRLGVRA, the protein stability index was 0.53638 ± 6.4e-06.
LPHYLAFPFFMI gave a protein stability index of 0.499 ± 0.08.
With SHSTPAFPLPPP the protein stability index was 0.638 ± 0.068.
Work on SPPPPPLPPSPR yielded a protein stability index of 0.713 ± 0.0078.
With RIAEYIDTKCPR the protein stability index was 0.708 ± 0.0074.
Sequence HRCLCGCLDSVV has a protein stability index of 0.726 ± 0.028.
PPAPPPLPPPTH gave a protein stability index of 0.633 ± 0.049.
Work on FSLTPSDPFPPA yielded a protein stability index of 0.681 ± 0.043.
Work on QLYGHNRRNQGL yielded a protein stability index of 0.611 ± 0.046.
Work on SFAKHRNASMGR yielded a protein stability index of 0.691 ± 0.04.
KERKNKKINRKF gave a protein stability index of 0.686 ± 0.093.
For GRQKIESSEAQT, the protein stability index was 0.666 ± 0.022.
Sequence QSGLAGIPIPKN has a protein stability index of 0.681 ± 0.078.
Sequence PPSLPPPSPAPL has a protein stability index of 0.682 ± 0.03.
With WKKSIKKDTREM the protein stability index was 0.721 ± 0.012.
For PSPPRPRLPTAV, the protein stability index was 0.67026 ± 0.00045.
Sequence DLPVPRPGTLQV has a protein stability index of 0.655 ± 0.045.
For PGALILSNRFFS, the protein stability index was 0.685 ± 0.041.
For RGCGKGPLLSWF, the protein stability index was 0.717 ± 0.0093.
For FHPVLPMSFRHV, the protein stability index was 0.666 ± 0.029.
KKNNNINKHTST showed a protein stability index of 0.6652 ± 0.0058.
GGGGGVWWVGRV showed a protein stability index of 0.678 ± 0.074.
In the case of PPSARLPPPPPR, the protein stability index is reported as 0.789 ± 0.12.
SGTVRRQCGNPD gave a protein stability index of 0.69752 ± 0.00027.
With FGYAGGSRVLGS the protein stability index was 0.68 ± 0.0095.
PDPGPPYPTPTA gave a protein stability index of 0.708 ± 0.066.
Sequence GVVWMSCGGWWG has a protein stability index of 0.7545 ± 0.0042.
Work on YSVLVSLLPPSL yielded a protein stability index of 0.681 ± 0.031.
With LEWGRGFGLWGG the protein stability index was 0.7823 ± 0.004.
Work on PPPLPPPAPPPP yielded a protein stability index of 0.658 ± 0.025.
For LWVSGARTTGYF, the protein stability index was 0.756 ± 0.048.
Sequence LLSHLPLPSSPP has a protein stability index of 0.737 ± 0.096.
Sequence EKIKKQITRTRR has a protein stability index of 0.6652 ± 0.0053.
Sequence GVLGWTRFRSCS has a protein stability index of 0.715 ± 0.077.
Work on KVDGTIDSRVMS yielded a protein stability index of 0.683 ± 0.089.
FCGDDVCLTHFG gave a protein stability index of 0.729 ± 0.029.
With PSQWLPSRSRTA the protein stability index was 0.733 ± 0.052.
PIGFSHISFSPS was tested, and the protein stability index was 0.645 ± 0.1.
LYPPVYRPVLSL showed a protein stability index of 0.6626 ± 0.0029.
Work on TFPRRCILNIQI yielded a protein stability index of 0.635 ± 0.024.
VGPGRRGWEGAP gave a protein stability index of 0.663 ± 0.022.
PLRFSSFSFPGW gave a protein stability index of 0.739 ± 0.13.
FFAPSRLHHLSL gave a protein stability index of 0.772 ± 0.071.
GFSGSPWSNPFV showed a protein stability index of 0.8663 ± 0.0025.
FLLFIRGFSGCR was tested, and the protein stability index was 0.624 ± 0.018.
Sequence LEVAGVLCSRVC has a protein stability index of 0.56 ± 0.016.
With GVSGQGLVAVEV the protein stability index was 0.59 ± 0.035.
LPSLLIHLVSQT showed a protein stability index of 0.668 ± 0.02.
In the case of PLFLLPSSPPAS, the protein stability index is reported as 0.757 ± 0.06.
Work on CFLPACPSPGDS yielded a protein stability index of 0.737 ± 0.075.
Work on QITSHRVISRLV yielded a protein stability index of 0.546 ± 0.037.
In the case of RWGCVGWKVVGG, the protein stability index is reported as 0.709 ± 0.1.
With APSPPSHPAAIP the protein stability index was 0.741 ± 0.042.
In the case of IRTITSVQTFPE, the protein stability index is reported as 0.673 ± 0.029.
For SGLFGDAVPCCV, the protein stability index was 0.632 ± 0.03.
KKKRMKIKCIGI gave a protein stability index of 0.647 ± 0.063.
With YINILKLVMNQD the protein stability index was 0.736 ± 0.052.
For DLPATSAETAPK, the protein stability index was 0.699 ± 0.058.
Sequence GPSATPPGPGLR has a protein stability index of 0.792 ± 0.052.
Sequence NGGRSATGSVVV has a protein stability index of 0.701 ± 0.066.
With SPPPALPPPRPL the protein stability index was 0.749 ± 0.031.
For CGSDRINACVRI, the protein stability index was 0.727 ± 0.032.
Sequence DNKEIEQTIRNK has a protein stability index of 0.6304 ± 0.0041.
In the case of GGGRALGRVWPG, the protein stability index is reported as 0.684 ± 0.017.
In the case of VWRGVWQVVVGG, the protein stability index is reported as 0.5227 ± 0.0013.
TPLSPPALPPPS was tested, and the protein stability index was 0.659 ± 0.074.
PTHDPPSLHSPA was tested, and the protein stability index was 0.604 ± 0.027.
For KVVVWRAKTSHS, the protein stability index was 0.692 ± 0.068.
Work on REEFHGLKGRGG yielded a protein stability index of 0.671 ± 0.046.
For AVGPLTGPRPPV, the protein stability index was 0.699 ± 0.073.
With RASRSPIARPGT the protein stability index was 0.643 ± 0.018.
Work on SPALSPCLRTGY yielded a protein stability index of 0.717 ± 0.062.
For GYYVLSIGGVIV, the protein stability index was 0.574 ± 0.0065.
PPAPPPLSPSPI was tested, and the protein stability index was 0.832 ± 0.04.
CILPFFFFVSPD showed a protein stability index of 0.652 ± 0.084.
IQSRDDTVEGRK showed a protein stability index of 0.63 ± 0.0095.
RCPRSPPQPLWT was tested, and the protein stability index was 0.731 ± 0.03.
Work on TFPPSAPQSSCS yielded a protein stability index of 0.7041 ± 0.0027.
FPPLLASPPPSP showed a protein stability index of 0.705 ± 0.011.
Work on VDTNIRRTATYS yielded a protein stability index of 0.729 ± 0.066.
Sequence GKGEERGVATRT has a protein stability index of 0.657 ± 0.0076.
With KKENKERNNEYE the protein stability index was 0.708 ± 0.081.
In the case of RVGERGEGGGVV, the protein stability index is reported as 0.638 ± 0.014.
In the case of GQVCSWRCVCYL, the protein stability index is reported as 0.6741 ± 0.0065.
In the case of FPPPPRPPLSFP, the protein stability index is reported as 0.711 ± 0.078.
In the case of TRSQTASRSPTG, the protein stability index is reported as 0.672 ± 0.017.
GNFDRVSMTKFR showed a protein stability index of 0.73 ± 0.035.
With PPRSPRPPPSRP the protein stability index was 0.72 ± 0.1.
For PFMFLSSCSGFF, the protein stability index was 0.735 ± 0.019.
RDLLPRWTWIIW gave a protein stability index of 0.76 ± 0.11.
In the case of LCRYFLRGVINT, the protein stability index is reported as 0.64998 ± 0.00026.
In the case of AWCGGVVGVAWL, the protein stability index is reported as 0.6661 ± 0.0062.
In the case of LQKNKIPTKKKD, the protein stability index is reported as 0.647 ± 0.0097.
With WVGWVACGAGGG the protein stability index was 0.651 ± 0.061.
Sequence GLKVVENWIECA has a protein stability index of 0.555 ± 0.044.
For YGLSVSSLRLWP, the protein stability index was 0.6853 ± 0.0051.
In the case of RCSCNKNGFSSN, the protein stability index is reported as 0.607 ± 0.2.
In the case of EFANKGIKINTA, the protein stability index is reported as 0.625 ± 0.019.
Work on KTQKNQKLTRSK yielded a protein stability index of 0.769 ± 0.12.
With VDSAPRPPPEPC the protein stability index was 0.649 ± 0.041.
With LFPSSHFSLSLH the protein stability index was 0.767 ± 0.033.
SAPPPAPPPPPR gave a protein stability index of 0.702 ± 0.027.
For GGGKRSERGGEP, the protein stability index was 0.672 ± 0.12.
RVIVRGREIEIV showed a protein stability index of 0.6782 ± 0.0018.
Sequence FFMNGLWGLSVR has a protein stability index of 0.612 ± 0.0092.
PPLPPPTSPPRP gave a protein stability index of 0.69 ± 0.038.
With KIGVHRGRGGRM the protein stability index was 0.614 ± 0.13.
VVSYFFSNDVLH showed a protein stability index of 0.752 ± 0.073.
With AKLNQLMSKSQI the protein stability index was 0.678 ± 0.02.
In the case of SHVDRVVFWYLL, the protein stability index is reported as 0.529 ± 0.033.
LRGEGAGPEDVG gave a protein stability index of 0.67 ± 0.029.
SNTVSRAPFLLA showed a protein stability index of 0.681 ± 0.15.
In the case of RKVTKLYDNIML, the protein stability index is reported as 0.776 ± 0.1.
Work on AWCLLTRWDLLL yielded a protein stability index of 0.609 ± 0.0014.
Sequence CQFHHHPDLTIK has a protein stability index of 0.609 ± 0.077.
NLEVNFKNIYVK gave a protein stability index of 0.679 ± 0.038.
For WARFRKGEVRSG, the protein stability index was 0.748 ± 0.072.
KKKKKIEQRKQE was tested, and the protein stability index was 0.67 ± 0.017.
GGVGATSGRLSR was tested, and the protein stability index was 0.712 ± 0.011.
RVRCPVVSGGRG gave a protein stability index of 0.707 ± 0.099.
Work on FQPQPSPAHPSH yielded a protein stability index of 0.693 ± 0.023.
Work on KGRAGTDVPLAR yielded a protein stability index of 0.712 ± 0.052.
In the case of SSWWPVRRTRLG, the protein stability index is reported as 0.587 ± 0.022.
LPPRPGFLSSLP gave a protein stability index of 0.64 ± 0.082.
AFRGRGAFKYCL gave a protein stability index of 0.683 ± 0.1.
In the case of LLPPTSRLPRLG, the protein stability index is reported as 0.702 ± 0.12.
SSSYPFPAPALR was tested, and the protein stability index was 0.683 ± 0.043.
VGTVREVYCQGG gave a protein stability index of 0.678 ± 0.014.
Work on PNQTRPHPHHNL yielded a protein stability index of 0.69 ± 0.02.
Sequence SCPTPRFPQCSS has a protein stability index of 0.633 ± 0.034.
